Experimental data: the PETadex activity labels (doi:10.1016/j.bbalip.2005.11.003)

B1: unnamed (protein)
chain: MWLLPLVLTSLASSATWAGQPASPPVVDTAQGRVLGKYVSLEGLAQPVAVFLGVPFAKPPLGSLRFAPPQPAEPWSFVKNTTSYPPMCCQDPVVEQMTSDLFTNGKERLTLEFSEDCLYLNIYTPADLTKRGRLPVMVWIHGGGLVLGGAPMYDGVVLAAHENVVVVAIQYRLGIWGFFSTGDEHSRGNWGHLDQVAALHWVQENIANFGGDPGSVTIFGESAGGESVSVLVLSPLAKNLFHRAISESGVALTVALVRKDMKAAAKQIAVLAGCKTTTSAVFVHCLRQKSEDELLDLTLKMKFLTLDFHGDQRESHPFLPTVVDGVLLPKMPEEILAEKDFNTVPYIVGINKQEFGWLLPTMMGFPLSEGKLDQKTATSLLWKSYPIANIPEELTPVATDKYLGGTDDPVKKKDLFLDLMGDVVFGVPSVTVARQHRDAGAPTYMYEFQYRPSFSSDKKPKTVIGDHGDEIFSVFGFPLLKGDAPEEEVSLSKTVMKFWANFARSGNPNGEGLPHWPMYDQEEGYLQIGVNTQAAKRLKGEEVAFWNDLLSKEAAKKPPKIKHAEL
B2: unnamed (protein)
chain: MLHLVCLALLCHVARGLPTQASHNAQPVINLGYARYQGVRLEAGVDEFLGMRYASPPIGDLRFRAPQDPPANQTLQSATEYGPICIGLDEEESPGDISEDCLFINVFKPSTATSQSKLPVWLFIQGGGYAENSNANYNGTQVIQASDDVIVFVTFNYRVGALGFLASEKVRQNGDLNAGLLDQRKALRWVKQYIEQFGGDPDHIVIHGVSAGAGSVAYHLSAYGGKDEGLFIGAIVESSFWPTQRTVSEMEFQFERFVNDTGCSSARDSLECLREQDIATIQKGNTGSPFPGGSSSPLPDWYFLPVTDGSLVPDELYNAFDAGNFIKVPVLVGDDTDEGSNFAYNASSSADVSRFFKNNYPNLTSQQLNEINQVYPRGKLLPRHAAYFGASSAAYGDATFTCPGNHVASSAARYLPNSVWNYRVNIIDESNIAGGIGVPHTFELPAIFGAGSTGTLSSDSSYLTYNAAIIPVTMHYFISFVQTLNPNTYRYATAPEWNTWGNGQRLRLQTNDTAMEAVPESSLQDCAFWKSLTVPMEV
B3: unnamed (protein)
chain: MLPLWTLSLLLGAVAGKEVCYERLGCFSDDSPWSGITERPLHILPWSPKDVNTRFLLYTNENPNNFQEVAADSSSISGSNFKTNRKTRFIIHGFIDKGEENWLANVCKNLFKVESVNCICVDWKGGSRTGYTQASQNIRIVGAEVAYFVEFLQSAFGYSPSNVHVIGHSLGAHAAGEAGRRTNGTIGRITGLDPAEPCFQGTPELVRLDPSDAKFVDVIHTDGAPIVPNLGFGMSQVVGHLDFFPNGGVEMPGCKKNILSQIVDIDGIWEGTRDFAACNHLRSYKYYTDSIVNPDGFAGFPCASYNVFTANKCFPCPSGGCPQMGHYADRYPGKTNDVGQKFYLDTGDASNFARWRYKVSVTLSGKKVTGHILVSLFGNKGNSKQYEIFKGTLKPDSTHSNEFDSDVDVGDLQMVKFIWYNNVINPTLPRVGASKIIVETNVGKQFNFCSPETVREEVLLTLTPC
B4: unnamed (protein)
chain: MLDMPIDPVYYQLAEYFDSLPKFDQFSSAREYREAINRIYEERNRQLSQHERVERVEDRTIKGRNGDIRVRVYQQKPDSPVLVYYHGGGFVICSIESHDALCRRIARLSNSTVVSVDYRLAPEHKFPAAVYDCYDATKWVAENAEELRIDPSKIFVGGDSAGGNLAAAVSIMARDSGEDFIKHQILIYPVVNFVAPTPSLLEFGEGLWILDQKIMSWFSEQYFSREEDKFNPLASVIFADLENLPPALIITAEYDPLRDEGEVFGQMLRRAGVEASIVRYRGVLHGFINYYPVLKAARDAINQIAALLVFD

What follows are proteins tested on p-NP-C4. Details: pH 7; 25 °C.
B1 gave a Km of 80 µM, a kcat of 18 s⁻¹ and a kcat/Km of 225000 M⁻¹ s⁻¹.
Work on B4 yielded a Km of 40 µM, a kcat of 140 s⁻¹ and a kcat/Km of 3.5e+06 M⁻¹ s⁻¹.

The proteins below were run on triacetin. Details: pH 7; 25 °C.
For B1, the Km was 3000 µM, the kcat was 60 s⁻¹ and the kcat/Km was 20000 M⁻¹ s⁻¹.
Protein B2 has a Km of 15000 µM, a kcat of 265 s⁻¹ and a kcat/Km of 17700 M⁻¹ s⁻¹.
With B3 the Km was 190000 µM, the kcat was 8 s⁻¹ and the kcat/Km was 42.1 M⁻¹ s⁻¹.
Work on B4 yielded a Km of 10000 µM, a kcat of 40 s⁻¹ and a kcat/Km of 4000 M⁻¹ s⁻¹.

Each protein was assayed on tributyrin. Details: pH 7; 25 °C.
For B1, the Km was 50 µM, the kcat was 70 s⁻¹ and the kcat/Km was 1.4e+06 M⁻¹ s⁻¹.
Work on B3 yielded a Km of 400 µM, a kcat of 7890 s⁻¹ and a kcat/Km of 1.97e+07 M⁻¹ s⁻¹.
B4 was tested, and the Km was 50 µM, the kcat was 95 s⁻¹ and the kcat/Km was 1.9e+06 M⁻¹ s⁻¹.

Each protein was assayed on tripropionin. Details: pH 7; 25 °C.
In the case of B1, the Km is reported as 300 µM, the kcat is reported as 50 s⁻¹ and the kcat/Km is reported as 167000 M⁻¹ s⁻¹.
B2 gave a Km of 350 µM, a kcat of 60 s⁻¹ and a kcat/Km of 171000 M⁻¹ s⁻¹.
For B3, the Km was 8000 µM, the kcat was 3320 s⁻¹ and the kcat/Km was 415000 M⁻¹ s⁻¹.
For B4, the Km was 300 µM, the kcat was 110 s⁻¹ and the kcat/Km was 367000 M⁻¹ s⁻¹.

What follows are proteins tested on vinyl acetate. Details: pH 7; 25 °C.
B1 showed a Km of 4000 µM, a kcat of 315 s⁻¹ and a kcat/Km of 78800 M⁻¹ s⁻¹.
With B2 the Km was 3000 µM, the kcat was 400 s⁻¹ and the kcat/Km was 133000 M⁻¹ s⁻¹.
B3 showed a Km of 315000 µM, a kcat of 170 s⁻¹ and a kcat/Km of 540 M⁻¹ s⁻¹.
With B4 the Km was 4000 µM, the kcat was 50 s⁻¹ and the kcat/Km was 12500 M⁻¹ s⁻¹.

The proteins below were run on vinyl butyrate. Details: pH 7; 25 °C.
B1 gave a Km of 2000 µM, a kcat of 460 s⁻¹ and a kcat/Km of 230000 M⁻¹ s⁻¹.
With B2 the Km was 2000 µM, the kcat was 25 s⁻¹ and the kcat/Km was 12500 M⁻¹ s⁻¹.
Protein B3 has a Km of 25000 µM, a kcat of 625 s⁻¹ and a kcat/Km of 25000 M⁻¹ s⁻¹.
B4 was tested, and the Km was 2500 µM, the kcat was 210 s⁻¹ and the kcat/Km was 84000 M⁻¹ s⁻¹.

These proteins were tested on vinyl propionate. Details: pH 7; 25 °C.
B1 was tested, and the Km was 5000 µM, the kcat was 295 s⁻¹ and the kcat/Km was 59000 M⁻¹ s⁻¹.
Work on B2 yielded a Km of 3000 µM, a kcat of 160 s⁻¹ and a kcat/Km of 53300 M⁻¹ s⁻¹.
B3 gave a Km of 75000 µM, a kcat of 800 s⁻¹ and a kcat/Km of 10700 M⁻¹ s⁻¹.
For B4, the Km was 7000 µM, the kcat was 200 s⁻¹ and the kcat/Km was 28600 M⁻¹ s⁻¹.

The proteins below were run on vinyl laurate. Details: pH 7; 25 °C.
With B3 the Km was 4000 µM, the kcat was 375 s⁻¹ and the kcat/Km was 93800 M⁻¹ s⁻¹.
